Assays:
Assay in all cases: SPR
DM1 TCR (human) = target: DM1 TCR (human)
[1] = target: HLA-B*4403^EENL (human | not stated | Epstein-Barr virus)
[2] = target: HLA-B*4405^EENL (human | not stated | Epstein-Barr virus)
[3] = target: HLA-B*4402^EENL (human | not stated | Epstein-Barr virus)

Kd (DM1 TCR (human)) | Kd [1] | Kd calc [1] | koff [1] | Kd [2] | Kd calc [2] | koff [2] | Kd [3] | Kd calc [3] | koff [3] | Substance
1 µM | – | – | – | – | – | – | – | – | – | HLA-B*4405^EENL (from UniProt P61769 21-119) (peptide-MHC)
– | 9.4 µM | 16 µM | 0.25 s⁻¹ | 0.3 µM | 0.23 µM | 0.02 s⁻¹ | 6.3 µM | 14 µM | 0.2 s⁻¹ | DM1 TCR

Reference: article PMC2626662
